Data reported in the supplement of paper PMC9732359.
± gives the uncertainty stated by the source.

Test: protein stability index of a GFP-peptide fusion (yeast GPS) (PSI 1-4); higher = more stable; sorted into four equal gates, so the index is relative within each strain
Method in brief: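 Peptides tiling yeast proteins in 17-residue segments were fused downstream of GFP, with Cherry expressed from the same plasmid. As a pooled library in yeast, mid-log cultures grown in leucine-free medium were sorted into four equal gates by GFP/Cherry fluorescence ratio. Gate plasmids were PCR-amplified and Illumina-sequenced, and barcodes linked reads to strains. Each peptide received a protein stability index equal to the sum of each gate's read frequency times its gate number.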

Sequence | protein stability index (doa10∆) | protein stability index (pdr5∆) | protein stability index (san1∆) | protein stability index (ubr1∆)
TINKAVQVKVLGKYEFS [ESC2] | 1.48 ± 0.077 | 1.37 ± 0.092 | 1.89 ± 0.18 | 2 ± 0.076
IFEISLQRKDYTSIVQC [YML103C/NUP188] | 1.76 ± 0.051 | 1.75 ± 0.048 | 2.05 ± 0.12 | 1.88 ± 0.052
KKVLEIDFFKTDDSFED [BRN1] | 2.09 ± 0.041 | 2.08 ± 0.055 | 2.46 ± 0.058 | 2.18 ± 0.042
RKLAVERAGHLLCDKAQ [PRE5] | 3.47 ± 0.15 | 3.18 ± 0.11 | 3.12 ± 0.072 | 3.37 ± 0.14
SGRCDGYILEGEELAFY [RPS8A] | 3.32 ± 0.12 | 3.44 ± 0.12 | 3.29 ± 0.093 | 3.36 ± 0.074
NNSEQDQEIVIQQLHSV [ISW2] | 2.48 ± 0.06 | 2.59 ± 0.071 | 2.2 ± 0.096 | 2.53 ± 0.038
SKNMSKSPSLTAQKYPI [YMR153W/NUP53] | 2.46 ± 0.051 | 2.46 ± 0.044 | 2.48 ± 0.055 | 2.51 ± 0.043
SEKQNDEEAAGASTVMK [PRP8] | 3.36 ± 0.15 | 3.18 ± 0.093 | 3.38 ± 0.11 | 3.43 ± 0.11
NFARQLLFNNDFPLLKV [RRP40] | 2.91 ± 0.05 | 2.02 ± 0.049 | 2.06 ± 0.08 | 2.12 ± 0.037
GENNINFQKASATLDGC [BRN1] | 2.94 ± 0.23 | 3.3 ± 0.21 | 3.12 ± 0.25 | 
CFDSTTGRDAGFGILED [RRP40] | 3.33 ± 0.13 | 3.24 ± 0.13 | 3.47 ± 0.12 | 3.41 ± 0.074
EEREGTDQSTEEEKSVD [CSL4] | 3.16 ± 0.16 |  |  | 
LEEQQQLEDESSRLEFV [YML103C/NUP188] | 3.43 ± 0.084 | 3.3 ± 0.086 | 3.39 ± 0.06 | 3.46 ± 0.08
YTANTSAQSIASAKSVR [YAR002W/NUP60] | 2.64 ± 0.088 | 2.93 ± 0.11 | 2.65 ± 0.09 | 2.71 ± 0.12
GDYGSAKCNSLLQLKYF [POP5] | 2.31 ± 0.049 | 2.24 ± 0.056 | 2.23 ± 0.067 | 2.59 ± 0.071
DEFKDITKEVTQVNILK [YIL149C/MLP2] | 3.14 ± 0.082 | 3.2 ± 0.075 | 2.67 ± 0.14 | 3.3 ± 0.057
GEAEAEKEEEEAKEESD [RPP1A] | 2.13 ± 0.22 | 3.51 ± 0.15 | 2.54 ± 0.16 | 3.52 ± 0.14
HLSHPGTNKDMILKLVC [ECM29] | 1.52 ± 0.049 | 1.45 ± 0.035 | 1.32 ± 0.09 | 1.91 ± 0.045
HLNFPNVKFLRIFISNV [SNF12] | 1.79 ± 0.071 | 1.26 ± 0.094 | 1.27 ± 0.13 | 1.19 ± 0.087
IINFGEIEQNTELLDEF [RPN10] | 3.25 ± 0.1 | 3.42 ± 0.083 | 3.23 ± 0.07 | 3.17 ± 0.072
ITIFSPEGRLYQVEYAF [SCL1] | 2.58 ± 0.15 | 2.6 ± 0.11 | 2.1 ± 0.092 | 2.37 ± 0.068
NNKILEKCKEINVETVY [BRR2] | 1.73 ± 0.06 | 2 ± 0.062 | 1.78 ± 0.19 | 2.06 ± 0.067
VNLEDNTQDLLLLLSLF [YML103C/NUP188] | 1.68 ± 0.13 | 2.7 ± 0.12 | 2.41 ± 0.14 | 2.47 ± 0.091
YTKETYQSRGIDAMKAV [RPN6] | 2.59 ± 0.069 | 2.86 ± 0.072 | 2.83 ± 0.064 | 2.39 ± 0.047
NSLLLDSTPEEVSCKLL [YML103C/NUP188] | 2.67 ± 0.081 | 3.16 ± 0.08 | 2.97 ± 0.085 | 2.71 ± 0.08
FVKNIRMLSFEDISKAT [RPN9] | 2.66 ± 0.063 | 1.86 ± 0.076 | 1.91 ± 0.078 | 1.93 ± 0.053

Sequence | protein stability index (doa10∆) | protein stability index (pdr5∆) | protein stability index (san1∆) | protein stability index (ubr1∆)
FKGVIVKIVDKDGIRQV [PRE1] | 2.26 ± 0.18 | 3.11 ± 0.19 | 3.16 ± 0.23 | 3.13 ± 0.092
DDNNNNNNNNNNNNSTR [GRR1] | 2.95 ± 0.045 | 3.02 ± 0.042 | 2.95 ± 0.041 | 3.03 ± 0.054
LTNGVTEHVRQNAKLLA [RRP6] | 1.6 ± 0.041 | 1.88 ± 0.073 | 1.99 ± 0.23 | 1.59 ± 0.069
SIESKLEEHKNHLDELQ [SMC1] | 2.99 ± 0.093 | 2.86 ± 0.13 | 2.92 ± 0.069 | 3 ± 0.076
KKFVSQIQKNVDLLQFP [POP3] | 2.65 ± 0.064 | 2.23 ± 0.073 | 3.34 ± 0.065 | 2.64 ± 0.053
TLGVVGKSEKLSLLLVE [SKI6] | 2.8 ± 0.051 | 3.04 ± 0.048 | 3.11 ± 0.035 | 2.96 ± 0.049
DFKTDVDEPMTSAVELG [YJL039C/NUP192] | 2.17 ± 0.073 | 2.28 ± 0.068 | 2.54 ± 0.13 | 2.85 ± 0.06
LQMYSKIRRHPNIMLIF [FAS1] | 1.72 ± 0.039 | 2.01 ± 0.042 | 1.97 ± 0.08 | 1.91 ± 0.034
AFVEFGASVIAGGQRIV [SWP82] | 2.21 ± 0.13 | 2.35 ± 0.1 | 2.02 ± 0.1 | 2.07 ± 0.085
ISALTQTEIKDIILGQN [PRP8] | 2.1 ± 0.054 | 2.51 ± 0.061 | 1.92 ± 0.077 | 1.99 ± 0.052
QEGLITTTMLQLFSTFD [SSN2] | 2.58 ± 0.051 | 2.57 ± 0.072 | 2.55 ± 0.056 | 2.61 ± 0.034
GRKVLQKVQGESHIDSR [SIR4] | 3.27 ± 0.14 | 3.33 ± 0.079 | 3.17 ± 0.09 | 3.27 ± 0.09
EKNYDRKEPPATVEECV [PRE6] | 3.3 ± 0.14 | 3.29 ± 0.12 | 3.11 ± 0.079 | 3.3 ± 0.072
HFFKWIEFIVYHQLLSD [SRB8] | 1.45 ± 0.05 | 1.3 ± 0.046 | 2.03 ± 0.08 | 1.2 ± 0.041
RRILPKPSRTSRQVQKR [RPS7A] |  | 3.44 ± 0.15 | 2.74 ± 0.1 | 3.35 ± 0.14
FLLRRVKADVEKSLLPK [ISW2] | 3.19 ± 0.13 | 3.05 ± 0.17 | 3.02 ± 0.079 | 2.94 ± 0.1
LCKTKMVCETDVPSEDD [RPO21] | 2.99 ± 0.071 | 3 ± 0.093 | 3.25 ± 0.074 | 2.52 ± 0.067
QWSRIVLQNVFKLVSTP [MED1] | 1.4 ± 0.039 | 1.24 ± 0.043 | 1.23 ± 0.08 | 1.34 ± 0.038
PAELDLRGSLLSRKPSD [RPC82] | 2.9 ± 0.13 | 3.38 ± 0.12 | 3.11 ± 0.099 | 3.19 ± 0.078
FGAKPEEQKSSDTSKPA [YJL041W/NSP1] | 3.23 ± 0.083 | 2.91 ± 0.084 | 3.32 ± 0.088 | 3.11 ± 0.09
RDQGNDSLNDDLNKENK [YIL149C/MLP2] | 3.23 ± 0.18 |  | 3.01 ± 0.15 | 3.32 ± 0.063
KRSMDAEQLGHASKRHK [RPP1] | 2.54 ± 0.058 | 2.79 ± 0.056 | 2.68 ± 0.056 | 2.61 ± 0.054
AACEKLLPPIKIELIKN [RPN12] | 1.98 ± 0.19 | 2.25 ± 0.094 | 2.44 ± 0.098 | 1.99 ± 0.072
IFLKRKDFTNKNLIQLI [SRB8] | 1.31 ± 0.053 | 1.43 ± 0.041 | 1.28 ± 0.086 | 1.4 ± 0.041
GSQILSGVMDKSVLGDG [RPO31] | 3.49 ± 0.12 | 3.28 ± 0.12 | 3.41 ± 0.068 | 3.55 ± 0.067
